# Measured values reported in the nanobody polyreactivity screen of Harvey et al. (2022).
# Assay: yeast display, Sf9 membrane polyspecificity reagent, FACS + sequencing; frameworks hold sequencing errors
# Method in brief: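 Nanobodies came from a synthetic yeast display library in Saccharomyces cerevisiae BJ5465, induced with galactose for 36–48 hours and stained for 1 hour at 4 °C with 10% biotinylated, detergent-solubilized Sf9 membrane reagent. Cells were enriched on streptavidin microbeads and then FACS-sorted, with low and high (top ~1%) gates set on anti-HA fluorescence for expression and streptavidin fluorescence for reagent binding. Each polyreactivity label reflects the gate a clone came from. Genes were amplified by colony PCR, sequenced by MiSeq 2 × 250 and filtered by CDR length.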
row,Sequence,polyreactivity (PSR sort gate)
1,QVQLVESGGGLVQAGGSLRLSCAASGSTFGGNAMGWYRQAPGKERELVAAITVGGDSTYYADSVKGRFTISRDNAKNTVYLQMNSLKPEVTAVYYCAAGPWYKFYDWRPWFSYDYWGQGTQVTVSS,low polyreactivity
2,QVQLVESGGGLVQAGGSLRLSCAASGSTFGGYAKGWYRQAPGKERELVAAISGSGVRTYYADSVKGRFTISRDNAKNTVYLQMNSLKPEDTAVYYCAKRVRYPGDRYYYWGQGTQVTVSS,high polyreactivity
3,QVQLVESGGGLVQAGGSLRLSCAASGSTFGGYAMGWYRQAPGKEREFVAAITKRGGRTYYADSVKGRFTISRDNAKNTVYLQMNSLKPEDTAVYYCATRGINYAEYDYWGQGTQVTVSS,high polyreactivity
4,QVQLVESGGGLVQAGGSLRLSCAASGSTFGGYAMGWYRQAPGKERELVADIDSIGGSTYYADSVKGRFTISRDNAKNTVYLQMNSLKPEDTAVYYCAARRFDTALVLYDYWGQGTQVTVSS,low polyreactivity
5,QVQLVESGGGLVQAGGSLRLSCAASGSTFGGYGMGWYRQAPGQERELVASISGGGNTNYADSVKGRFTISRDNAKNTVYLQKNSLKPEDTAVYYCNARINSWYSTYRYYYWGQGTQVTVSS,low polyreactivity
6,QVQLVESGGGLVQAGGSLRLSCAASGSTFGINAMGWYRQAPGKERELVASITRRGGSTYYADSVKGRFTISRDNAKNTVYLQMHSLKPEDTAVYYCAAGNKRRFEGDYWGQGTQVTVSS,high polyreactivity
7,QVQLVESGGGLVQAGGSLRLSCAASGSTFGIYVMGWYRQAPGKERELVADISSSGGSTYYADSVKGRFTISRDNAKNTVYLQMNSLKPEDTAVYYCNAYHWDGDGVFYEYDYWGQGTQVTVSS,high polyreactivity
8,QVQLVESGGGLVQAGGSLRLSCAASGSTFGKYAMGWYRQAPGKERELVAAISKSGGSTYYADSVKGRFTISRDNAKNTVYLQMNSLKPEDTAVYYCNAYPHAYTGSTREGDYWGQGTQVTVSS,high polyreactivity
9,QVQLVESGGGLVQAGGSLRLSCAASGSTFGKYAMGWYRQAPGKERELVAAITRRTGSTYYADSVKGRFTISRDNAKNTVYLQMNSLKPVDTAVYYCAARLPQYRYDYWGQGTQVTVSS,high polyreactivity
10,QVQLVESGGGLVQAGGSLRLSCAASGSTFGKYAMGWYRQAPGKERELVARIDSGDRTRYADSVKGRFTISRDNAKNTVYLQMNSLKPEDTAVYYCAARYVGARNAYRMGYWGQGTQVTVSS,high polyreactivity
11,QVQLVESGGGLVQAGGSLRLSCAASGSTFGLNVMGWYRQAPGKEREFVAGISRSGGRTYYADSVKGRFTISRDNAKNTVYLQMNSLKPEDTAVYYRAADYWTGITPDAIGDYWGQGTQVTVSS,low polyreactivity
12,QVQLVESGGGLVQAGGSLRLSCAASGSTFGLYAMGWYRQAPGKERELVAAISSGGRTNYADSVKGRFTISRDNAKNTVYLQMNSLKPEDTAVYYCASAYIRGSRRYDYWGQGTQVTVSS,high polyreactivity
13,QVQLVESGGGLVQAGGSLRLSCAASGSTFGLYAMGWYRQAPGKERELVAAITSTGGSTYYADSVKGRFTISRDNAKNTVYLQMNSLKPEDTAVYYCARDYRSGYDYWGQGTQVTVSS,low polyreactivity
14,QVQLVESGGGLVQAGGSLRLSCAASGSTFGLYAMGWYRQAPGKERELVADITWSGGSTYYADSVKGRFTISRDNAKNTVYLQMNSLKPEDTAVYYCAADGYDQYPLWAPPGDYWGQGTQVTVSS,low polyreactivity
15,QVQLVESGGGLVQAGGSLRLSCAASGSTFGLYAMGWYSQAPGKEREMVAVISWRGGSTIYADSVKGRFTISRDNAKITVYLEMNSLKPEDTAVYYCNAKQSYYYPWRGYNYWGQGTQVTVSS,high polyreactivity
16,QVQLVESGGGLVQAGGSLRLSCAASGSTFGLYTMGWYRQAPGKERELVASISIGGSTYYADSVKGRFTISRDNAKNTVYLQMNSLKPEDTAVYYCAADVKRDRVWGGDYWGQGTQVTVSS,low polyreactivity

row,Sequence,polyreactivity (PSR sort gate)
1,QVQLVESGGGLVQAGGSLRLSCAASGSTFGLYVMGWYRQAPGKERELVAAISWSGGSTYYADSVKGRFTISRDTAKNTVYLQMNSLKPEDTAVYYCAKVFRTYRYPYGYWGQGTQVTVSS,high polyreactivity
2,QVQLVESGGGLVQAGGSLRLSCAASGSTFGNYAMGWDRQAPGKERELVAAITSSGRTYYADSVKGRFTISRDNAKNTVYFQMNSLKPEDTAVYYCAAKSSRGGSVGFDYWGQGTQVTVSS,high polyreactivity
3,QVQLVESGGGLVQAGGSLRLSCAASGSTFGNYAMGWYRQATGKERELVAASRWSGTRTFYADSVKGRFTISRDNAKNTVYLQMNSLKPEDTAVYYCNAVYSQPGYKGGYSWGQGTQVTVSS,high polyreactivity
4,QVQLVESGGGLVQAGGSLRLSCAASGSTFGPNTMGWYRQAPGKERELVAAINLRGGRTYYADSVKGRFTISRDNAKNTVYLQMNSLKPEDTAVYYCAARFKTTGYDYWGQGTQVTVSS,high polyreactivity
5,QVQLVESGGGLVQAGGSLRLSCAASGSTFGPYAMGWYRQAPGKERELVAAIRSDGGTYYADSVTGRFTISRDNAKNTVYLQMNSLKPEDTAVYYCNAVPVGWRYRQYDYWGQGPQVTVSS,high polyreactivity
6,QVQLVESGGGLVQAGGSLRLSCAASGSTFGPYAMGWYRQAPGKERELVADITVSDGSTYYADSVKGRFTISRDNAKNTVYLQMNSLKPEDTAVYYCAAEIYYSFGYWGQGTQVTVSS,low polyreactivity
7,QVQLVESGGGLVQAGGSLRLSCAASGSTFGPYAMGWYRQAPGKERELVATIRGSGATTYYADSVKGRFTISRDNAKNTVYLQMHSLKPEDTAVYYCATAYFSGWYNRYGRATSYDYWGQGTQVTVSS,high polyreactivity
8,QVQLVESGGGLVQAGGSLRLSCAASGSTFGQYAMGWYRQAPGKELELVAAISSGGRTNYADSVKGRFTISRDNAKNPVYLQMNSLKPEDTAVYYCAARYYFPFRRFRRMDYWGQGTQVTVSS,high polyreactivity
9,QVQLVESGGGLVQAGGSLRLSCAASGSTFGRNAMGWYIQAPGKERELVAAISNRGGRTYYADSVKARFTISRDNAKNTVYFQMNSLKPEDTAVYYCAAEHRVQQGDYWGQGTQVTVSS,high polyreactivity
10,QVQLVESGGGLVQAGGSLRLSCAASGSTFGRNAMGWYRQAPGKEREFVAAISSRGGRTSYADSVKGRFTISRDNAKNTVYLQMNSLKPEDTAVYYCATLGYFSASRTDYDYWGQGTQVTVSS,low polyreactivity
11,QVQLVESGGGLVQAGGSLRLSCAASGSTFGRNAMGWYRQAPGKERELVAAISKTGGSTYYADSVKGRFTISRDNAKNTVYLQMNSLKPEDTAVYYCAARIRGFRTYYYWGQGTQVTVSS,high polyreactivity
12,QVQLVESGGGLVQAGGSLRLSCAASGSTFGRNAMGWYRQAPGKERELVAAISSGGRTYYADSVKGRFTISRDNAKNTVYLQMNSLKPEDTAVYYCARDDYGTLVKLYVRGFNYWGQGTQVTVSS,low polyreactivity
13,QVQLVESGGGLVQAGGSLRLSCAASGSTFGRNARGWYRQAPGKERELVAAITASGGTTYYADSVKGRFTISRDNAKNTVYLQMNSLKPEDTAVYYCNVSYLVYRWNFGWSMDFWGQGTQLTVSS,low polyreactivity
14,QVQLVESGGGLVQAGGSLRLSCAASGSTFGRNTMGWYRQAPGKERELVAAITSGDTTTYADSVKGRFTISRDNAKNTVYLQMNSLKPEDTAVYYCAVDPVRGRDYSWMDYWGQGTQVTVSS,low polyreactivity
15,QVQLVESGGGLVQAGGSLRLSCAASGSTFGRNVIGWYRQAPGKERELVAAISIRGGSTYYADSVKGRFTISRDIAKNTVYLQMNSLKPEDTAVYYCALDYPTDAYDYWGQGTQVTVSS,low polyreactivity
